Square brackets hold non-standard residues; d marks the D form. Peptide text beside a SMILES is read from it. * marks the point of attachment. DOTA = O=C(O)CN1CCN(CC(=O)O)CCN(CC(=O)*)CCN(CC(=O)O)CC1
Key:
[1] = tested on: Jurkat xenografts; assay type: in vivo, mouse; details: 1 h p.i., SPECT/CT or PET/CT
Experimental: The ability of the ^177Lu ligands to target CXCR4 in vivo was assessed by SPECT/CT imaging in Jurkat xenografts. […] 1 h after injection, the remaining amount of radioligand in the body (and vice versa, the washout) was quantified by measuring the total body activity (mouse) in a dose calibrator. The % of the radioligand remaining in the body after 1 h is reported in Figure 6A as % of the remaining activity in reference to the injected activity (100%).
Figure 6 SPECT/CT images as maximum intensity projections (MIPs) of Jurkat tumor-bearing mice at 1 h p.i. of ^177Lu-labeled ligands (200 pmol, ∼15 MBq). […] (B) Same SPECT/CT images of ^177Lu-1, ^177Lu-2, ^177Lu-5, and ^177Lu-6, adapted in a lower scale. T: tumor, L: liver, and K: kidneys. […] TEXT PRINTED IN THE PICTURE: (A) ^177Lu-1: Remaining Activity (% injected): 6 % | (A) ^177Lu-2: Remaining Activity (% injected): 7 % | (A) ^177Lu-5: Remaining Activity (% injected): 7 % | (A) ^177Lu-6: Remaining Activity (% injected): 8 % | (A) ^177Lu-7: Remaining Activity (% injected): 55 % | (A) ^177Lu-9: Remaining Activity (% injected): 94 %
The experimental protocol involving animals was approved by the Veterinary Office (Department of Health) of the Cantonal Basel-Stadt (Approval No. 30515) in accordance with the Swiss regulations for animal treatment. Female athymic nude-Foxn1^nu/Foxn1^+ mice (Envigo, The Netherlands), 4–6 weeks old, were injected subcutaneously with 10^7 Jurkat cells in a 200 μL (1:1) mixture of PBS and Matrigel (CorningMatrigelMembrane matrix, Fischer Scientific, Germany) on the right shoulder. The tumors were allowed to grow for 3–4 weeks before commencement of the experiments.
Nude mice bearing Jurkat xenografts were intravenously injected via the tail vein with ∼15 MBq (200 pmol) of the ^177Lu ligands and 8 MBq (200 pmol) of ^68Ga-7 were euthanized 1 h post injection (p.i.). The radioactivity in the syringe before and after injection was measured followed by measuring the amount of radioactivity remaining in the sacrificed mice. […]

[2] = tested on: Ghost-CXCR4 cells; experiment: Cellular uptake and distribution in Ghost-CXCR4 cells; assay type: cell-based, human; details: 37 °C, 60 min
Experimental: Figure 4 In vitro assessment in Ghost-CXCR4 cells at 37 °C. […] Each experiment was performed in triplicate. Results are means ± SD [% of applied activity] from a minimum of two separate experiments. […] Cellular uptake was interrupted at 15, 30, and 60 min by removing the medium and washing twice with ice-cold PBS. The cell surface-bound radioligand was obtained by washing cells twice with ice-cold glycine buffer (pH 2.8) followed by a collection of the internalized fraction after treating the cells with 1 M sodium hydroxide (NaOH). The activity in each fraction was measured in a γ-counter. […] The results were expressed as a percentage of the applied radioactivity after subtracting the nonspecific uptake.

[3] = Shelf-life of 177Lu-labeled ligands at room temperature (radio-HPLC); assay type: physicochemical
Experimental: The shelf-life of each ^177Lu-labeled ligand was monitored at room temperature up to 24 h after radiolabeling.
The shelf-lives of ^177Lu-labeled ligands were assessed at room temperature (RT) in the buffer used for labeling, as described above. For the analysis, 5 μL was withdrawn at desired time points (0, 1, 2, 4, and 24 h) from the stock solution and mixed with 50 μL of the Ca-DTPA solution. 20 μL of this mixture was withdrawn and injected in RP-HPLC.

[4] = assay type: in vitro ADME, human; details: human, plasma
Experimental: Representative radiochromatograms are provided in Figure S25 for ^177Lu-1, ^177Lu-2, and ^177Lu-7. This included ^177Lu-9 despite its fatty acid chain.
(§1) Figure 3 Stability of the ^177Lu ligands in human plasma at 37 °C, expressed as % of intact radioligand over time, assessed by radio-HPLC. The % of plasma protein binding (PPB) after 60 min incubation is provided in parenthesis and it is expressed as the % of radioligand in the protein fraction (pellet) versus the total activity in the plasma. TEXT PRINTED IN THE PICTURE: ^177Lu-1: PPB: 35% | ^177Lu-2: PPB: 22% | ^177Lu-5: PPB: 42% | ^177Lu-6: PPB: 38% | ^177Lu-7: PPB: 39% | ^177Lu-9: PPB: 37%
To 1 mL of fresh human plasma, previously equilibrated at 37 °C, 500 pmol (8–10 MBq) of each ^177Lu-labeled ligand was added. The mixture was incubated at 37 °C for different time points (0, 15, 30, 60, and 120 min). At each time point, a 100 μL aliquot was removed and treated with 1.5 excess (v/v) of acetonitrile, to precipitate plasma proteins, followed by centrifugation for 5 min at 3500 rpm. The supernatant was collected and the process of protein precipitation was repeated. Afterward, 100 μL from the supernatant was taken, diluted with water at a ratio of 1:10 (v/v), and injected into radio-HPLC. The radioligand (in)stability was assessed by quantifying the percentage of intact radioligand over time.

[5] = assay type: in vitro ADME; details: human, plasma, plasma protein binding (PPB)
Experimental: as §1
For the determination of plasma protein binding (PPB), 100 μL from the plasma incubated with the ^177Lu ligand was removed and measured in a γ-counter (total radioactivity). Protein precipitation and separation followed, as described above. The supernatant and the protein pellet were then measured in a γ-counter. The percentage of plasma protein binding was calculated as the ratio between the protein-bound radioactivity and the total radioactivity in the plasma.

Compound: CC[C@@H](C)[C@@H](N)C(=O)N[C@@H](CC(C)C)C(=O)N[C@@H](CCCNC(=N)N)C(=O)N[C@@H](Cc1c[nH]c2ccccc12)C(=O)N[C@@H](CO)C(=O)N[C@@H](CCCNC(=N)N)C(=O)N[C@@H](CCCCN)C(=O)N[C@@H](CCCCNC(=O)CN1CCN(CC(=O)O)CCN(CC(=O)O)CCN(CC(=O)O)CC1)C(N)=O [^177Lu-7, metal not drawn] (H-[dI]LRWSRKK(DOTA)-NH2; N-terminus assumed)
- visualization of CXCR4-expressing tumor xenograft by imaging [1]: accumulated and visualized the CXCR4-expressing tumor xenograft
- cellular uptake (% of the applied activity) [2]: 7.90 ± 1.48%
- radiochemical purity (%) ([3]; 0 h after radiolabeling): 98 ± 1%
- radiochemical purity (%) ([3]; 1 h after radiolabeling): 95 ± 0%
- radiochemical purity (%) ([3]; 2 h after radiolabeling): 94 ± 0%
- radiochemical purity (%) ([3]; 4 h after radiolabeling): 88 ± 3%
- metabolic stability in plasma (in words) [4]: high metabolic stability in plasma up to 4 h
- fraction unbound at 60 min [5]: 0.61
